# Test system: Saccharomyces cerevisiae
# Assay: transcriptional activation domain activity (GFP:mCherry ratio, weighted mean of sorted bins, harmonized to initial dataset scale) (arbitrary fluorescence ratio units); higher = stronger transcriptional activation
# Settings: beta-estradiol 1 µM; induction time 4 h
# Summary of the method: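 Protein tiles carrying barcodes and fused to an estradiol-inducible synthetic transcription factor were placed at the URA3 locus of yeast diploids with a GFP reporter. Following 4 hours at 30 °C in SC with 1 uM beta-estradiol, cells were sorted into 8 GFP:mCherry bins, barcodes were sequenced, and tiles with fewer than 50 reads were discarded. Activation activity is given as the read-weighted mean of bin median fluorescence, averaged across barcodes and linearly mapped to the initial dataset scale.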
row,Sequence,transcriptional activation domain activity
1,EGKPVAAEGVKDSWDASSDEEGSNPAPAPAPAAKAKPSQKANGTHVPISESQT,40500
2,TMFHGLLFHLCHGAAVLVVWSFHHVVCSMRDDEETLQVMEELDYVIHVLNAFA,47800
3,MKVNRPFACSHEGCEKAFARKGELTKHERLHSGERPFACSHCEKAFGRSDARK,16000
4,MNDCSAGCAGGQFPVGQDGLICIVEFNTITCVSTGSIVFLMLHSWLYFVLLIF,71600
5,HPLSWAKFALVMGMLSSLGVLVISTYSVSLSILQFARPLQYIPRFLWTIATLV,34400
6,VPLVSNSGIVCYDSKIMHAFLSGLLFLQGLMILWFIMIFKLVVRVLLGENAED,43900
7,KILLNHNYFYFRMLCHHQTCNIYNLYHQIFLIFLQIIVSILLSLRIIALYLGN,66400
8,QLECFGSTSLGWKSLKLVLRAHALCLLAAAVKEGLFEYSYVRLLADLCLSLEC,56200
9,ALRHRYIIGTSLCRLFIPLYFFACPYNTLFQDPNPLVWILLLYVSAQALLLLL,63900
10,MGASLVVFLLFFHLLFKNGLDLLIFPFSFFYSCTIFLSFLSFLYFSFCTHVFF,59800
11,VGEWMGGGVGCLAAWLGHGIRIFGGTEYWLVPEFFFPLFLFFSFPPWSLVLFC,74100
12,GDEEREQRKKHKKRKDRGSDDEDRHHKHKHKKDKHREKGTKDSKKHRGNEPSS,64300
13,ASNTTEVQLFINGSYVLLDTVCTRVLLYPDQILSNFRREDIALLCLQFWLFFI,28700
14,VKGGGDSRKVKGAESGQSGSGSGKQSGSRRRAVSSSRTRGSKEPDASIKSNGT,35100
15,WLILIRIINPIIMYFFVSCFYSLLSLAFQVPFNRFYGSSGFVIYWMMSWMAMC,47100
16,HIFYTQLYPAYDLPKKLQEDTELETEQENQMLNQVGNINYTHDFSLSHEIDDL,57800
17,TADTAAASTSQPKLAQDQQQATDGENSEKRKPGRPRGSRNRKPRASVGSATKA,37800
18,AISKLGQIMLYILKCLGLLKVVRKDDQGRIVECNNLTLINLVLTYTGPLPERN,46000
19,SSSEDDGKAGEGSSSSSDSEKARGRKKAKKSKEKGKGKATEGNSSSSSSDDDS,21100
20,GFRFAVAVIDNIQTMKHETMGSYVTLIMNMHITQAVAVWFYSCIFTFKLGQAI,62500
21,HTQENEKVMWNIGSWNAPSLTNSWDSPPGNRTGAVTIGDESINGSEMPDFSLD,36100

row,Sequence,transcriptional activation domain activity
1,LILILLIWRYCWYDGVIVNKIRAIGNDFCIWNPRMGEPLWTEYSHLVAKCLLF,62700
2,SRSRKGRGRRRRGSKASRGSRSSRGSAASSANTSDSSSSSSSSDSDDSSSSSS,18200
3,LLLCGEICVACIVLYIHIVFFFGFFFFFLLGMIGLCLTFSNQLILFVYFLYFL,43200
4,LNLGWRLMHFKVHFARIGVIVHGPQYGELTDWDCSSAHRGDILGFPKAQLLFE,25100
5,WDMTLGGTINKTGVIGVIMIVIGFYLWFFLSCAVLIAMEGCSAMLHSLRLQWV,31300
6,SADDSAGEARQREKSEESGTRRSRKSHDRESKEGAEGADEAESWERSSKKKSR,29600
7,MQLDGVQLGFVGLTPFFRERHTECPVFILVVGHSCKLLLIMHIILVIHLLDCR,52900
8,VCLNLLGGVVVCYCPGLLVIAAIEAPIRFKHIFTCSIHIHSLYLRLLFCALHA,69200
9,YDIVCQWWRNLVDRLKELPPLVRISLILELCQFVIPKMHIHSHTLLCQLLFSL,59100
10,MLMDLALTLDDLTVRSLSVVGASVFMAFTYATLPATLGWGTWFLLSVWTLIFY,64200
11,LSNANHWKFIHIDEDGKLWRSNEFLLDLRLYNQDQVVIIYRFLHYVVKCCYES,54300
12,FSLFGSFGCFGSLTLLLSLVMPVVLFVMLQWVMVWIWSCCFIFRLGMLTSFDV,54500
13,EIGALMLLSKTLEDNPNRLGSLVRILTLKCFIPQSYFKLMVRRLNILFSCCSR,64300
14,VTSLATARLPAARPRTAVLPARATSAVRRVTCRANAPRTAVRVTAATVPSATR,45400
15,TRTLFMVPQLCCAFSSMWLYQILVAVSIYLTNHVGIMMVRVWSYCVAVYVLEV,69800
16,DNAHVLQEYLAVFRHLLSYHDPKLSSHMETIGFMPDLYAIPWFLTLFTHVFPL,58600
17,PSLPPSHPVPSLSLFCFFVFFFAFFFFFFMPIFYYNLLISHFPFCRCWRCLHM,26200
18,GKPAASAFGGGSSAFGAGSGAFGGGGGGGPSAFGAPASKPSAFGTGGAFGGGA,51100
19,MLSHLVVSTPHCSIMFGPSMDWTRVFAFFLLLRFSLHWISNNCFVSPLLLLCY,69800
20,VGLKWGMGRDKSFSFTSKLNNPQFLGSLDLEILEELEKLISAQEFSRNFTEDV,70100
21,GKKGPGGRKGPGGRKGPGGRGGRAGGPKGRGGKGGKGMRPGAGAPPPPPPIAA,52600

row,Sequence,transcriptional activation domain activity
1,MSTQGPAKRRGAQATDKPVKRTRVSRACDQCRIAREKCDGAQPTCSTCSTSRR,36700
2,ILLTCLLQICCRFVQEKQTRCLQILLHYIGSQASMHAGARPLELLCRSLLEAM,40900
3,TVLLDVALNGNPKELIVFILEHVYSLENDLTVLQQSLLVLVICKVYNETYPKQ,67400
4,MTLLLLLLLLLFSYNFTYIYLFFLLLSFHLCVSLYTTFTLNFIFLYTSLYILD,74200
5,FLDFLDLWTFGLFGPLDFLDFLDFLDFLDFLDFLDFLDLWTFGLFGPLDFLDF,46900
6,LVLQTDFLLMVERVDVCLEFLEAHRDFREVEIYLLRFQQCLTRAMTLIKMFFV,51900
7,EGAQDCGESESEGANESEEESEEENVFVVGKILDKRTNGKRKQVEYLVRCESQ,39600
8,IVSPFSTSVRSVSSCVELIRQGRGALATSITGYKYLILYGQVMMMLKIFTFYF,55600
9,NLRVIELRFSLRFYRDVVFCRKLLRKHEVFVTIIKLLLCLLTLDIEGLKIKVG,46500
10,LYAWLSFFWVLVYVYFFSITVYLVVKGSRSILDLSHGSPSPLLTGSLFACLVW,58700
11,MRFLFFLLLFLFFFPPPLPPISSLQGCFFVIFFFGFFIFSSFLLFYAVFFFIV,39000
12,RPSLASSTATATATTTRPAADAASTTRAPRASLAPSTKPTTTRPAVAAAATRT,33500
13,AEHVDLVGCPVHVMTRFWHLYLPAFTLHTVLYIFTLIRVLNCENSPQALLIRR,56600
14,FLKIYLLNPLHMTRFTDLLHQGFILNRVFQPYESHLQYLLQWMCDYNLYGCAY,39200
15,TLLYLYTFSFLFPPLLFILILLHLHHLSSSHLFFIHSIILSHNKLWPLLFLLS,53400
16,DAPEKEPEAEAAKPKGRGGRPKKVVPPAAAAPAPKEKEEPKPKAAAGRKRKAP,32100
17,MFCLRSWLPLLFIPTNASPVFIFLFFVCTYFLNRPCVYCSFLLLILFMTSCNW,62500
18,VAAAAAETERAAEAERVAEAGRREEAEGTTDTGKTETGRREEADGTAGAAKAA,24800
19,DNPEQLMKVFLSRNLISTGVIYSEHKCNMMVRLVWLFLCFLHRKSVLPEIRGL,59500
20,MWTQASVATLPTLPFTGISLSYFPCLFLLFSPDIFIFLFFLLFIYLFIFSFLL,55900
21,MWWRADGHYLNPLSQIFFSCEFWFFLLLFQMGDGFAFFFFLSIGLVTSFFFFF,35400

row,Sequence,transcriptional activation domain activity
1,MLLLPLSFPFLSFPFLSFPFLSFPFLSSPFLSLVFSVLVLFFIFLLLLLLLLL,34900
2,LFALAMLLLFCFIGLLVSGLHFGHRVYSDDCLGQSWIMFSSILGFLYIGLHVQ,32600
3,MSLFSILYFYYTICFICFLTFLTIKDLHIYLLLKFQITIFLFCYFFVCFLSPL,76600
4,MGSQLPHLQLSDTDGAGPMKRRRPALACVECRRRKVKCDRKKPCSPCTRIKSL,69900
5,ILGKLLYHMILLYLCVDLSLSEQIEHLSAATHLTMILYRLGGKDFIPTNLYIN,45000
6,IHFFFFGGTYFFFFCQWGFGGFFFSFLTFIPFFSYIFHIFHYAVLWLWLWLWL,59800
7,RVEEEGKSGVPAGDRFCGISLRPGILTDGEAGGVKVGKIGTGGKTARATVAES,22900
8,MRTGSNFVLFAFFCLVLMFTLTFILVFVCCASVGGILYPFRFLLSFVWILVSL,28200
9,RKKSALEEEERKEKENDELEKKGKRKEEKEEKRRRGKGEKKGKEIRKEKEEKE,25300
10,LLRRIMRYRNMHLLLSYAVELGFLRAIILCGRPSLSKVHHHVRFFLRDLLPAS,38800
11,NANNANTNANANNNAATTNANANGNGKKGKNNNNNANANANANANAAAAAAAG,18400
12,MDASSPTSSSAKTPHNKGPRACATCARAKSRCIAGPDGAAGNCERCHRLKKPC,9040
13,KDEEEREGEKRKEGKEESDTAVVKHRRRYRSRSKDRKRDGSRERRHRERSREG,30600
14,EERRRGRRRRRKGGGEGGRGRKREKEREERERKGEKKEGERKGKGEEKGREKK,20300
15,MWMSLLHFHTFTIFLTFFFFFFFFFCLPPFVSLLTLFLVEIFLSWREGFLPHP,39400
16,AMPTFDLVMWYREFQRILLEMRAYVIYKATVLPRWSNPSYDRPFPVLPVRGVI,48600
17,DAARGGYQSAGGAGTGSDSETNRGRGRGGRGGFRGERGGRGRGRGATPAKTEG,27200
18,EHQCATIQLDFQLPQQFNLEYMTSEKAPAAKIEAAPKTETAPKAEAPAAAPAA,42500
19,THHAFPLRLLVAIVVLLDCHSLLQIALGTCTWAISYHVRPFALTTVILCCSIT,41300
20,DTSSFFLRFFHFPFLQLFLLQCLISPCLYVRTCPISLLLLWWCFYSVFFCVRG,50300
